The source of these data is US6355785.

Series [1] concerns the target HIV-1 gp120 (Human immunodeficiency virus 1) (UniProt P04578). In words: competition. To be noted: ID50 for gp120, gp120-CD4 interaction.
The target in series [2] is T1, SIV integrase (Simian immunodeficiency virus) (UniProt P05897).
T1 sequence: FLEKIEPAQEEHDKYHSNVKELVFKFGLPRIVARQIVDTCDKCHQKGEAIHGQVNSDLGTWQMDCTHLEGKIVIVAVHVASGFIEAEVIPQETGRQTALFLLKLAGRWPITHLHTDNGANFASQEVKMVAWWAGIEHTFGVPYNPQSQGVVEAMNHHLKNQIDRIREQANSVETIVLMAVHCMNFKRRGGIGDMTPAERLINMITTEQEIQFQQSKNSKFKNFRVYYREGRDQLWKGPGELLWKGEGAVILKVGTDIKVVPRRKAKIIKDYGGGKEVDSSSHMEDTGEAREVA
In words: inhibition. The following applies: PS at first and last internucleoside linkages (pPT), 3'-OH; 3'-processing.

Series [3] has as its target HIV-1 integrase wild-type (IN1-288) (Human immunodeficiency virus 1) (UniProt P12497). In words: inhibition. The following applies: I, 3'-processing.

Usually IC50 stands for the point on the concentration scale where inhibition reaches its midpoint. Read a high IC50 as lower potency. GATCCATGTCAGTGACAC [1231 random GATC] returned an IC50 in series [1] (phosphodiester, 3'-amine) above 100000 nM.

In series [1] (PS all linkages, 3'-amine), GATCCATGTCAGTGACAC [1232 random GATC] showed an IC50 above 10000 nM.

In series [1] (phosphodiester, 3'-amine), GGGTGGGTGGGTGGGTGG [1173] registered an IC50 above 100000 nM.

Regarding GGGTGGGTGGGTGGGTGG [1174], in series [1] (PS all linkages, 3'-amine), the IC50 worked out at 90 nM.

GTGGTGGGTGGGTGGGT [T30177 (AR177)] came in with an IC50 in series [2] of 420 nM.

In the case of “GTGGTGGGTGGGTGGGTGGTGGGTGGTGGTTGTGGGTGGGTGGTG [I100-07]”, the half-maximal inhibitory concentration (IC50) in series [1] (phosphodiester, 3'-amine) was 800 nM.

In the case of “GTGGTGGGTGGGTGGGTGGTGGGTGGTGGTTGTGGGTGGGTGGTG [I100-21]”, the IC50 in series [1] (PS all linkages, 3'-amine) came out at 70 nM.

GTTGGGGGTTGTTGGTGGGGTGGTGG [I100-00] yielded an IC50 in series [1] (phosphodiester, 3'-propanolamine) of 3500 nM.

With GTTGGGGGTTGTTGGTGGGGTGGTGG [I100-12], in series [1] (PS all linkages, 3'-amine), the IC50 worked out at 80 nM.

As to “TCTTCCTCTCTCTACCCACGCTCIC [T30531 antisense GEM91 variant PT]”, the concentration for half-maximal inhibition (IC50) in series [3] (PS all linkages, strand transfer 0.036) is 30 nM.

“TCTTCCTCTCTCTACCCACGCTCIC [T30658 antisense GEM91 variant PD]”: in series [3] (all phosphodiester, strand transfer >0.5), the IC50 was above 500 nM.

As to “TCTTCCTCTCTCTACCCACGCTCIC [T30662 antisense GEM91 variant pPT]”, the half-maximal inhibitory concentration (IC50) in series [3] (PS at first and last linkages (pPT), strand transfer >0.5) is above 500 nM.
